These results are taken from patent US20160199445A1 (CENTRE NATIONAL DE LA RECHERCHE SCIENTIFIQUE, published 2016).

As a reminder, the Kd is a measure of binding affinity in units of concentration. A higher Kd goes with a looser complex.

This assay deals with T1, Purified Arp2/3 complex.
T1 construct: Used in fluorescence anisotropy, pyrene-actin and TIRF assays
Put plainly: fluorescence anisotropy, competition with labelled ArpinA bound to purified Arp2/3 complex. In general terms: Fluorescence polarisation rises when a labelled molecule tumbles more slowly, as on binding a larger partner.

B1: ArpinA peptide (residues 211-226 of full length Arpin), unlabelled synthetic peptide (peptide)
peptide: EIREQGDGAEDEEWDD
notes: Purchased from Proteogenix; also called Arpin Acidic peptide; Acidic peptide
For the molecule B1, the Kd stood at 1030 nM.
